Values belong to the binder of their own block, whether it stands above or below them.
Tests used:
[1] = molecular target: T1, human aquaporin 3 (AQP3) on cells (human, UniProt Q92482 1-292); test: flow cytometry on HaCaT cells, 10 µg/mL (FIG. 6A)
T1 construct: whole, on cells; Water channel membrane protein; also called human AQP3; AQP3 on HaCaT cells
T1 sequence (looked up): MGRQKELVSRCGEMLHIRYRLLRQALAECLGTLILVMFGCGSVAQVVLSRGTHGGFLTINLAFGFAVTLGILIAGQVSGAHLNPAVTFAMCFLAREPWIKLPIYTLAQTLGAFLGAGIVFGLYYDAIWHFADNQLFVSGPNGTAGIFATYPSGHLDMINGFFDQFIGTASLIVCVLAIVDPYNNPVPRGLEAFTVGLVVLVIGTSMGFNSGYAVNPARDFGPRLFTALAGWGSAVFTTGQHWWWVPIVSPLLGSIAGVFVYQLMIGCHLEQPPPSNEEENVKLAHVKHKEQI
Protocol: HaCaT cells were treated with Cell Dissociation Buffer for 30 minutes at 37° C., and then dislodged and collected. Then, the cells were reacted with 10 μg/mL anti AQP3 antibody at 4° C. for 1 hour. After washing the cells, a fluorescent-labeled secondary antibody was added and the reaction was allowed to occur additionally for 1 hour (4° C.). Then, by using a flow cytometer, fluorescence intensity was measured (FIG. 6A to FIG. 6C). FIG. 6A represents the result of a case in which antibody G was used, FIG. 6B represents the result of a case in which antibody H was used, and FIG. 6C represents the result of a case in which antibody J was used. […] The histogram expressed with bold line represents a case in which the anti AQP3 antibody was used while the histogram expressed with thin dotted line represents a case as a control in which the anti AQP3 antibody was not used (addition of non-specific IgG). […] Ratio (%) of the cells included in this range (=cells showing positive staining by anti AQP3 antibody) is also shown in the drawing.

[2] = molecular target: T2, mouse aquaporin 3 (AQP3) on cells (mouse, UniProt Q8R2N1 1-292); test: fluorescence binding assay on PAM212 cells, 10 µg/mL (FIG. 5B)
T2 construct: whole, on cells; Water channel membrane protein; also called mouse AQP3; AQP3 on PAM212 cells
T2 sequence (looked up): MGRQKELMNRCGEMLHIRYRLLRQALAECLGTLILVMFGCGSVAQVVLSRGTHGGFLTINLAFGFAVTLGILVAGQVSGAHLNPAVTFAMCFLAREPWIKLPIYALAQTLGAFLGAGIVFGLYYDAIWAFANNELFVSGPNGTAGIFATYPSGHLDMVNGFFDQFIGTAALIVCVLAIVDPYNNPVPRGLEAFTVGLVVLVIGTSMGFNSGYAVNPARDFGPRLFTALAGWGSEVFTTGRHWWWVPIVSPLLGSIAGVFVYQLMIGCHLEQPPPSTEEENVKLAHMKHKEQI
Protocol: (§1) PAM212 and macrophage cells were reacted with each anti AQP3 antibody (0.1, 1, or 10 μg/mL) at 4° C. for 1 hour. After washing the cells, a fluorescent-labeled secondary antibody was added and the reaction was allowed to occur additionally for 1 hour (4° C.). By measuring the fluorescence intensity, the binding property of each anti AQP3 antibody to cells was obtained.
The assay was also performed using PAM212 cells and antibodies A, B, C, D, E, F, G, H, and J at a concentration of 10 μg/mL. Binding of antibodies C, D, E, G, and J to PAM212 cells was statistically significant.

[3] = molecular target: T3, oligopeptide ATYPSGHLDM (SEQ ID NO: 1) (human and mouse); test: ELISA on the immunogen peptide (FIG. 2)
T3 construct: Synthetic peptide; positions 148 to 157 of the human AQP3 polypeptide, identical in mouse; also called peptide used for immunization; oligopeptide 5
T3 peptide: ATYPSGHLDM

[4] = molecular target: T4, mouse AQP3 in lysate of HEK293T cells overexpressing mouse AQP3 and a myc-biotinylated tag (mouse, UniProt Q8R2N1 1-292); test: ELISA on lysate of HEK293T cells overexpressing mouse AQP3 (FIG. 3)
T4 construct: Cell lysate used in ELISA; also called AQP3 containing cell lysate; not shown: myc-biotinylated tag
T4 sequence (looked up): T2 sequence (looked up)
Description: Cell lysate from HEK293T cells overexpressing mouse AQP3 and a myc-biotinylated tag was used in an ELISA assay to measure the binding of antibodies A, B, C, D, E, F, G, H, J, and K to AQP3. Cell lysate from HEK293T cells overexpressing the myc-biotinylated tag but not AQP3 was used as control. […] C. Antibody binding to AQP3 expressing cells

[5] = molecular target: T2, mouse aquaporin 3 (AQP3) on cells; test: FACS on HEK293 cells stably overexpressing mouse AQP3, 10 µg/mL
Protocol: A FACS assay was also performed using HEK293 cells stably overexpressing mouse AQP3. Cells were incubated with antibody E, H, J, or negative control IgG at a concentration of 10 μg/mL for one hour and then sorted by FACS. Separately, HEK293 cells stably overexpressing human AQP3 were incubated with antibody E at a concentration of 10 μg/mL for one hour and then sorted by FACS.

[6] = molecular target: T1, human aquaporin 3 (AQP3) on cells; test: fluorescence binding assay on HaCaT cells, 10 µg/mL (FIG. 5C)
[7] = molecular target: T5, oligopeptide ATYPSGHL (SEQ ID NO: 102); test: ELISA on coated peptide
T5 construct: Synthetic peptide, part of Loop C of AQP3
T5 peptide: ATYPSGHL
Protocol: (§2) To determine the important amino acid residues of an epitope in Loop C involved in binding to specific AQP3 antibody clones, peptides of varying lengths were produced. The sequences of these peptides are shown in column 2 of Table 4.
(§3) The various peptides and AQP3 antibody clones were subjected to ELISA binding analyses. […] The microtiter wells (Costar 2690) were coated with 50 μL of each peptide at 4° C. overnight. The wells were washed 3 times with PBS and blocked with 100 μL of 1% BSA/PBS at 37° C. for 1 hour. Each antibody was adjusted to 1 μg/mL in 1% SBA/PBS as above then serially diluted 1:5 in 1% BSA/PBS. The blocker was discarded and the wells were incubated with 50 μL of antibodies at 37° C. for 1.5 hours. The wells were washed 3 times with PBS and mouse antibodies were detected with 50 μL of goat anti-mouse IgG (H+L) HRP conjugate (ThermoFisher 31438) (1:5,000 in 1% BSA/PBS) and rabbit antibodies were detected with 50 μL of goat anti-rabbit IgG (H+L) HRP conjugate (ThermoFisher 31462) (1:5,000 in 1% BSA/PBS) at 37° C. for 1 hour. The wells were washed 3 times with PBS and developed with 50 μL of HRP substrate at RT for 5 min then stopped with 50 μL of 2N sulfuric acid and binding was measured with a plate reader.

[8] = molecular target: T6, oligopeptide SGHLDM (SEQ ID NO: 99); test: ELISA on coated peptide
T6 construct: Synthetic peptide, part of Loop C of AQP3
T6 peptide: SGHLDM
Protocol: as §2, §3

[9] = molecular target: T7, oligopeptide YPSGHLDM (SEQ ID NO: 97); test: ELISA on coated peptide
T7 construct: Synthetic peptide, part of Loop C of AQP3; first diluted in DMSO
T7 peptide: YPSGHLDM
Protocol: as §2, §3

[10] = molecular target: T8, oligopeptide SGPNGTAGIFATYPS (SEQ ID NO: 94); test: ELISA on coated peptide
T8 construct: Synthetic peptide, part of Loop C of AQP3
T8 peptide: SGPNGTAGIFATYPS
Protocol: as §2, §3

[11] = molecular target: T9, oligopeptide IFATYPSGHLDM (SEQ ID NO: 108); test: ELISA on coated peptide
T9 construct: Synthetic peptide, part of Loop C of AQP3
T9 peptide: IFATYPSGHLDM
Protocol: as §2, §3

[12] = molecular target: T10, oligopeptide PSGHLDM (SEQ ID NO: 98); test: ELISA on coated peptide
T10 construct: Synthetic peptide, part of Loop C of AQP3
T10 peptide: PSGHLDM
Protocol: as §2, §3

[13] = molecular target: T11, oligopeptide TAGIFATYPSGHLDM (SEQ ID NO: 105); test: ELISA on coated peptide
T11 construct: Synthetic peptide, part of Loop C of AQP3
T11 peptide: TAGIFATYPSGHLDM
Protocol: as §2, §3

[14] = molecular target: T12, oligopeptide GHLDM (SEQ ID NO: 100); test: ELISA on coated peptide
T12 construct: Synthetic peptide, part of Loop C of AQP3
T12 peptide: GHLDM
Protocol: as §2, §3

[15] = molecular target: T13, oligopeptide GIFATYPSGHLDM (SEQ ID NO: 107); test: ELISA on coated peptide
T13 construct: Synthetic peptide, part of Loop C of AQP3
T13 peptide: GIFATYPSGHLDM
Protocol: as §2, §3

[16] = molecular target: T14, oligopeptide FATYPSGHLDM (SEQ ID NO: 109); test: ELISA on coated peptide
T14 construct: Synthetic peptide, part of Loop C of AQP3
T14 peptide: FATYPSGHLDM
Protocol: as §2, §3

[17] = molecular target: T3, oligopeptide ATYPSGHLDM (SEQ ID NO: 1); test: ELISA on coated peptide
Protocol: as §2, §3

[18] = molecular target: T15, oligopeptide ATYPSGH (SEQ ID NO: 103); test: ELISA on coated peptide
T15 construct: Synthetic peptide, part of Loop C of AQP3
T15 peptide: ATYPSGH
Protocol: as §2, §3

[19] = molecular target: T16, oligopeptide ATYPSGHLD (SEQ ID NO: 101); test: ELISA on coated peptide
T16 construct: Synthetic peptide, part of Loop C of AQP3
T16 peptide: ATYPSGHLD
Protocol: as §2, §3

[20] = molecular target: T17, oligopeptide TYPSGHLDM (SEQ ID NO: 96); test: ELISA on coated peptide
T17 construct: Synthetic peptide, part of Loop C of AQP3
T17 peptide: TYPSGHLDM
Protocol: as §2, §3

[21] = molecular target: T18, oligopeptide AGIFATYPSGHLDM (SEQ ID NO: 106); test: ELISA on coated peptide
T18 construct: Synthetic peptide, part of Loop C of AQP3
T18 peptide: AGIFATYPSGHLDM
Protocol: as §2, §3

[22] = molecular target: T19, oligopeptide ATYPSG (SEQ ID NO: 104); test: ELISA on coated peptide
T19 construct: Synthetic peptide, part of Loop C of AQP3
T19 peptide: ATYPSG
Protocol: as §2, §3

[23] = molecular target: T3, oligopeptide ATYPSGHLDM (SEQ ID NO: 1); test: ELISA on peptide SEQ ID NO:1, IgG, 50% binding response (FIG. 16A)
[24] = molecular target: T2, mouse aquaporin 3 (AQP3) on cells; test: fluorescence binding assay on mouse macrophage cells, 0.1, 1 and 10 µg/mL (FIG. 4)
Protocol: as §1
The testing was also carried out using solvent (Veh) or a non-specific IgG (IgG) controls. In FIG. 4, the vertical axis represents fluorescence intensity, and the mean fluorescence intensity of each sample is represented by bar height together with standard error.

binding result [1]: binds
binding result [2]: binds
binding result [3]: binds
binding result [4]: binds
B1: Antibody G (antibody, mouse IgG2a, kappa, V domains shown)
VH: QVQLKQSGAELVRPGASVTLSCKASGYTFTDYEMHWVKQTPVHGLEWIGGIDPETGGTAYNQKFKGKAILTADKSSSTAYMELRSLTSEDSAVYYCTRWGAITSFVALRGFAYWGQGTLVTVSS
VL: DIQMTQSPSSLSVSAGEKVTMSCKSSQSLLNSGNQKNYLAWYQQKPGQPPKLLIYGASTRESGVPDRFTGSGSGTDFTLTISSVQAEDLAVYYCQNDHSYPPTFGAGTKLELKR
notes: also called anti AQP3 antibody G; Antiboy G

binding result [3]: binds
binding result [5]: binds
binding result [4]: binds
binding result [6]: binds
B2: Antibody H (antibody, mouse IgG2a, kappa, V domains shown)
VH: EVKLVESGGDLVKPGGSLKLSCAASGFTFSSYGMSWVRQTPDKRLEWVATISRRSIYTYYPDSVQGRFTISRDNAKNTLYLQMSSLKSEDTAMYYCARLSLYDYDGARYTMDYWGQGTSVTVSS
VL: DIKMTQSPKFMSTSVGDRVSITCKASQDVGTAVAWYQQKPGQSPKLLIYWASTRHTGVPDRFTGSGSGTDFTLTISNVQSEDLADYFCQQYSSYHTFGAGTKLEIKR
notes: also called anti AQP3 antibody H

binding signal (plate reader) [7]: 0.044
binding signal (plate reader) [8]: 0.041
binding signal (plate reader) [9]: 0.086
binding signal (plate reader) [10]: 0.043
binding signal (plate reader) [11]: 0.594
binding signal (plate reader) [12]: 0.095
binding signal (plate reader) [13]: 0.723
binding signal (plate reader) [14]: 0.043
binding signal (plate reader) [15]: 0.523
binding signal (plate reader) [16]: 0.513
binding signal (plate reader) [17]: 0.391
binding signal (plate reader) [18]: 0.045
binding signal (plate reader) [19]: 0.671
binding signal (plate reader) [20]: 0.26
binding signal (plate reader) [21]: 0.744
binding signal (plate reader) [22]: 0.044
binding result [4]: binds
EC50 [23]: > 1 µg/mL
binding result [24]: binds
binding result [6]: binds
B3: Antibody J (antibody, mouse IgG2a, kappa, V domains shown)
VH: QVHLQQSGTELVKPGASVKLSCEASGYTFTSYWMHWVKQRPGQGLEWIGNINPSNGGTNYNEKFKSKATLTVDKSSSTAYMQLSSLTSEDSAVYYCARGGIYYGNYDYYAMDYWGQGTSVTVSS
VL: DIVMTQAAPSVPVTPGESVSISCRSSKSLLHSNGNTYLYWFLQRPGQSPQLLIYRVSNLASGVPDRFSGSGSGTAFTLRISRVEAEDVGVYYCMQHLEYPFTFGGGTKLEIKR
notes: also called anti AQP3 antibody J

Source: US20220298237A1 (KEIO UNIVERSITY, published 2022)
